{"source": "paper PMC8452709", "about": "“Effects of apolipoprotein E isoform, sex, and diet on insulin BBB pharmacokinetics in mice” (Scientific Reports, 2021)", "test_system": "blood–brain barrier (BBB)", "experiment": "125I-insulin BBB transport, multiple-time regression analysis (Ki)", "type": "in vivo, mice (human E3- and E4-targeted replacement)", "settings": "for Ki, linear BBB transport (unidirectional influx rate): 15 mo, iv, albumin-corrected", "procedure": "Ten micrograms of human insulin (Sigma-Aldrich, St. Louis, MO, USA) was diluted in 0.25 M chloride-free sodium phosphate buffer (PB), pH 7.5, and radioactivity labeled with 0.5–1 mCi Na^125I (Perkin Elmer, Waltham, MA, USA) using the chloramine-T (Sigma-Aldrich) method similar to our previously reported methods. […] Protein labelling by ^125I or by ^99mTc isotopes was characterized by 15% trichloroacetic acid (TCA) precipitation.\nMice were anesthetized with an intraperitoneal injection of 0.1–0.15 ml 40% urethane to minimize pain and distress. […] Blood from the left carotid artery was collected between 0.5 and 10 min after intravenous injection. Mice were immediately decapitated and their whole brains quickly removed and weighed. Each mouse provided a single blood sample and time matched brain sample. The arterial blood was centrifuged at 5400g for 10 min at 4 °C and serum collected. The brains were dissected into regions according to the method described in Ref.[56] and weighed. The levels of radioactivity in serum (50 μl) and brain regions were counted in a gamma counter (Wizard2, Perkin Elmer, Waltham, MA). […] Expt was calculated from the formula:1 Exposuretime=∫0tCptdt/Cpt, where Cp is the level of radioactivity (cpm) in serum at time (t). Expt corrects for the clearance of peptide from the blood. The influx of insulin was calculated by multiple-time regression analysis as described by Patlaket al.[55],[57]:2 Am/Cpt=Ki∫0tCptdt/Cpt+Vi, where Am is level of radioactivity (cpm) per g of brain tissue at time t, Cpt is the level of radioactivity (cpm) per ml arterial serum at time t, Ki (μl/g-min) is the steady-state rate of unidirectional solute influx from blood to brain. Vi (μl/g) is the level of rapid and reversible binding for brain which usually is a combination of vascular space plus any brain endothelial cell receptor binding. The brain/serum (B/S) ratios for insulin were corrected for vascular space by subtracting the corresponding ratio for albumin, yielding a delta B/S ratio. The linear portion of the relation between the delta B/S ratio versus Expt was used to calculate the Ki (μl/g-min) with its standard error term, and the y-intercept determined as representation of the Vi (μl/g)[55].\nAs a priori sex differences were expected, male and female data were analyzed separately. Regression analyses and other statistical analyses were performed with Prism 8.0 (GraphPad Software Inc., San Diego, CA, USA) and SPSS (Chicago, IL) software. Brain weight means are reported with their standard error terms and analyzed using two-way analysis of variance (ANOVA) followed by Sidak’s post hoc test when appropriate. For pharmacokinetic studies, the slope of the linear regression lines (Ki), reported with their correlation coefficients (r), and y-intercepts (Vi) were compared statistically using the Prism software, as described."}
{"substance": "125I-insulin: human insulin (Sigma-Aldrich) radioactively labeled with Na125I by the chloramine-T method", "values": [{"measurement": "Ki, linear BBB transport (unidirectional influx rate)", "setting": "female E3 LFD mice, hippocampus", "value": 1.43, "unit": "µL/g/min"}, {"measurement": "Ki, linear BBB transport (unidirectional influx rate)", "setting": "female E3 LFD mice, midbrain", "value": 0.78, "unit": "µL/g/min"}, {"measurement": "Ki, linear BBB transport (unidirectional influx rate)", "setting": "female E3 LFD mice, occipital cortex", "value": 0.73, "unit": "µL/g/min"}, {"measurement": "Ki, linear BBB transport (unidirectional influx rate)", "setting": "female E3 LFD mice, olfactory bulb, no significant transport (p > 0.05)", "value": 1.06, "unit": "µL/g/min"}, {"measurement": "Ki, linear BBB transport (unidirectional influx rate)", "setting": "female E3 LFD mice, parietal cortex, no significant transport (p > 0.05)", "value": 0.64, "unit": "µL/g/min"}, {"measurement": "Ki, linear BBB transport (unidirectional influx rate)", "setting": "female E3 LFD mice, pons/medulla", "value": 0.91, "unit": "µL/g/min"}, {"measurement": "Ki, linear BBB transport (unidirectional influx rate)", "setting": "female E3 LFD mice, striatum", "value": 0.56, "unit": "µL/g/min"}, {"measurement": "Ki, linear BBB transport (unidirectional influx rate)", "setting": "female E3 LFD mice, thalamus, no significant transport (p > 0.05)", "value": 0.71, "unit": "µL/g/min"}, {"measurement": "Ki, linear BBB transport (unidirectional influx rate)", "setting": "female E4 HFD mice, cerebellum", "value": 1.04, "unit": "µL/g/min"}, {"measurement": "Ki, linear BBB transport (unidirectional influx rate)", "setting": "female E4 HFD mice, frontal cortex", "value": 0.62, "unit": "µL/g/min"}, {"measurement": "Ki, linear BBB transport (unidirectional influx rate)", "setting": "female E4 HFD mice, hypothalamus", "value": 1.41, "unit": "µL/g/min"}, {"measurement": "Ki, linear BBB transport (unidirectional influx rate)", "setting": "female E4 HFD mice, olfactory bulb", "value": 1.34, "unit": "µL/g/min"}, {"measurement": "Ki, linear BBB transport (unidirectional influx rate)", "setting": "female E4 HFD mice, parietal cortex", "value": 0.92, "unit": "µL/g/min"}, {"measurement": "Ki, linear BBB transport (unidirectional influx rate)", "setting": "female E4 HFD mice, pons/medulla", "value": 1.27, "unit": "µL/g/min"}, {"measurement": "Ki, linear BBB transport (unidirectional influx rate)", "setting": "female E4 HFD mice, striatum, no significant transport (p > 0.05)", "value": 0.85, "unit": "µL/g/min"}, {"measurement": "Ki, linear BBB transport (unidirectional influx rate)", "setting": "female E4 LFD mice, cerebellum", "value": 1.63, "unit": "µL/g/min"}, {"measurement": "Ki, linear BBB transport (unidirectional influx rate)", "setting": "female E4 LFD mice, hypothalamus", "value": 1.12, "unit": "µL/g/min"}, {"measurement": "Ki, linear BBB transport (unidirectional influx rate)", "setting": "female E4 LFD mice, midbrain", "value": 0.50, "unit": "µL/g/min"}, {"measurement": "Ki, linear BBB transport (unidirectional influx rate)", "setting": "female E4 LFD mice, pons/medulla", "value": 0.81, "unit": "µL/g/min"}, {"measurement": "Ki, linear BBB transport (unidirectional influx rate)", "setting": "female E4 LFD mice, striatum, no significant transport (p > 0.05)", "value": 0.30, "unit": "µL/g/min"}, {"measurement": "Whole brain BBB transport or vascular binding", "setting": "females, effect of genotype or diet", "value": "no differences"}, {"measurement": "Ki, linear BBB transport (unidirectional influx rate)", "setting": "male E3 HFD mice, cerebellum", "value": 1.08, "unit": "µL/g/min"}, {"measurement": "Ki, linear BBB transport (unidirectional influx rate)", "setting": "male E3 HFD mice, hippocampus, no significant transport (p > 0.05)", "value": 1.08, "unit": "µL/g/min"}, {"measurement": "Ki, linear BBB transport (unidirectional influx rate)", "setting": "male E3 HFD mice, hypothalamus, no significant transport (p > 0.05)", "value": 0.57, "unit": "µL/g/min"}, {"measurement": "Ki, linear BBB transport (unidirectional influx rate)", "setting": "male E3 HFD mice, midbrain, no significant transport (p > 0.05)", "value": 0.96, "unit": "µL/g/min"}, {"measurement": "Ki, linear BBB transport (unidirectional influx rate)", "setting": "male E3 HFD mice, occipital cortex", "value": 0.88, "unit": "µL/g/min"}, {"measurement": "Ki, linear BBB transport (unidirectional influx rate)", "setting": "male E3 HFD mice, parietal cortex, no significant transport (p > 0.05)", "value": -0.07, "unit": "µL/g/min"}, {"measurement": "Ki, linear BBB transport (unidirectional influx rate)", "setting": "male E3 HFD mice, striatum, no significant transport (p > 0.05)", "value": 0.04, "unit": "µL/g/min"}, {"measurement": "Ki, linear BBB transport (unidirectional influx rate)", "setting": "male E3 HFD mice, thalamus, no significant transport (p > 0.05)", "value": 0.65, "unit": "µL/g/min"}, {"measurement": "Ki, linear BBB transport (unidirectional influx rate)", "setting": "male E3 LFD mice, cerebellum", "value": 1.06, "unit": "µL/g/min"}, {"measurement": "Ki, linear BBB transport (unidirectional influx rate)", "setting": "male E3 LFD mice, hippocampus", "value": 0.92, "unit": "µL/g/min"}, {"measurement": "Ki, linear BBB transport (unidirectional influx rate)", "setting": "male E3 LFD mice, hypothalamus", "value": 1.22, "unit": "µL/g/min"}, {"measurement": "Ki, linear BBB transport (unidirectional influx rate)", "setting": "male E3 LFD mice, midbrain", "value": 0.40, "unit": "µL/g/min"}, {"measurement": "Ki, linear BBB transport (unidirectional influx rate)", "setting": "male E3 LFD mice, occipital cortex", "value": 0.75, "unit": "µL/g/min"}, {"measurement": "Ki, linear BBB transport (unidirectional influx rate)", "setting": "male E3 LFD mice, olfactory bulb", "value": 1.28, "unit": "µL/g/min"}, {"measurement": "Ki, linear BBB transport (unidirectional influx rate)", "setting": "male E3 LFD mice, pons/medulla", "value": 1.41, "unit": "µL/g/min"}, {"measurement": "Ki, linear BBB transport (unidirectional influx rate)", "setting": "male E3 LFD mice, striatum, no significant transport (p > 0.05)", "value": 0.59, "unit": "µL/g/min"}, {"measurement": "Ki, linear BBB transport (unidirectional influx rate)", "setting": "male E3 LFD mice, thalamus, no significant transport (p > 0.05)", "value": 0.56, "unit": "µL/g/min"}, {"measurement": "Ki, linear BBB transport (unidirectional influx rate)", "setting": "male E4 HFD mice, hippocampus, no significant transport (p > 0.05)", "value": 0.36, "unit": "µL/g/min"}, {"measurement": "Ki, linear BBB transport (unidirectional influx rate)", "setting": "male E4 HFD mice, hypothalamus, no significant transport (p > 0.05)", "value": 0.35, "unit": "µL/g/min"}, {"measurement": "Ki, linear BBB transport (unidirectional influx rate)", "setting": "male E4 HFD mice, pons/medulla", "value": 0.65, "unit": "µL/g/min"}, {"measurement": "Ki, linear BBB transport (unidirectional influx rate)", "setting": "male E4 HFD mice, striatum, no significant transport (p > 0.05)", "value": -0.12, "unit": "µL/g/min"}, {"measurement": "Ki, linear BBB transport (unidirectional influx rate)", "setting": "male E4 LFD mice, frontal cortex", "value": 0.65, "unit": "µL/g/min"}, {"measurement": "Ki, linear BBB transport (unidirectional influx rate)", "setting": "male E4 LFD mice, hippocampus", "value": 1.28, "unit": "µL/g/min"}, {"measurement": "Ki, linear BBB transport (unidirectional influx rate)", "setting": "male E4 LFD mice, hypothalamus, no significant transport (p > 0.05)", "value": 0.46, "unit": "µL/g/min"}, {"measurement": "Ki, linear BBB transport (unidirectional influx rate)", "setting": "male E4 LFD mice, midbrain", "value": 0.53, "unit": "µL/g/min"}, {"measurement": "Ki, linear BBB transport (unidirectional influx rate)", "setting": "male E4 LFD mice, parietal cortex", "value": 0.73, "unit": "µL/g/min"}, {"measurement": "Ki, linear BBB transport (unidirectional influx rate)", "setting": "male E4 LFD mice, striatum, no significant transport (p > 0.05)", "value": 0.57, "unit": "µL/g/min"}, {"measurement": "Whole brain BBB transport rate (Ki)", "setting": "males, decreases due to HFD, p = 0.056", "value": "did not reach significance"}]}
